Tests used:
[1] = target: PsiD R135A/Q136A (Psilocybe cubensis) (UniProt P0DPA6); assay: SEC
[2] = target: the molecule itself; assay: SEC
[3] = target: the molecule itself; assay: crystal structure
[4] = target: the molecule itself; assay: crystal structure; remark: listed apart in the source

PsiD R135A/Q136A (from UniProt P0DPA6 1-402) (enzyme)
stoichiometry N [1]: 2

B1: PsiD (1–439) S403A (enzyme, Psilocybe cubensis, UniProt P0DPA6 1-439, looked up)
chain: MQVIPACNSAAIRSLCPTPESLRNMGWLSVSDAVYSEFIGELATRASNRNYSNEFGLMQPIQEFKAFIESDPVVHQEFIDMFEGIQDSPRNYQELCNMFNDIFRKAPVYGDLGPPVYMIMAKLMNTRAGFSAFTRQRLNLHFKKLFDTWGLFLSSKDSRNVLVADQFDDRHCGWLNERALSAMVKHYNGRAFDEVFLCDKNAPYYGFNSYDDFFNRRFRNRDIDRPVVGGVNNTTLISAACESLSYNVSYDVQSLDTLVFKGETYSLKHLLNNDPFTPQFEHGSILQGFLNVTAYHRWHAPVNGTIVKIINVPGTYFAQAPSTIGDPIPDNDYDPPPYLKSLVYFSNIAARQIMFIEADNKEIGLIFLVFIGMTEISTCEATVSEGQHVNRGDDLGMFHFGGASFALGLRKDCRAEIVEKFTEPGTVIRINEVVAALKA
stoichiometry N [2]: 2

B2: L-tryptophan decarboxylase PsiD, full-length (1–439), wildtype, self-cleaved mature enzyme (enzyme, Psilocybe cubensis)
chain 1: MQVIPACNSAAIRSLCPTPESLRNMGWLSVSDAVYSEFIGELATRASNRNYSNEFGLMQPIQEFKAFIESDPVVHQEFIDMFEGIQDSPRNYQELCNMFNDIFRKAPVYGDLGPPVYMIMAKLMNTRAGFSAFTRQRLNLHFKKLFDTWGLFLSSKDSRNVLVADQFDDRHCGWLNERALSAMVKHYNGRAFDEVFLCDKNAPYYGFNSYDDFFNRRFRNRDIDRPVVGGVNNTTLISAACESLSYNVSYDVQSLDTLVFKGETYSLKHLLNNDPFTPQFEHGSILQGFLNVTAYHRWHAPVNGTIVKIINVPGTYFAQAPSTIGDPIPDNDYDPPPYLKSLVYFSNIAARQIMFIEADNKEIGLIFLVFIGMTEISTCEATVSEGQHVNRGDDLGMFHFGG
chain 2: SSFALGLRKDCRAEIVEKFTEPGTVIRINEVVAALKA
modifications: pyruvoyl prosthetic group at 403 (Pvl403, formed from Ser403)
stoichiometry N [3]: 2

B3: PsiD (50–439), self-cleaved, co-crystallised with L-tryptophan (domain or fragment, Psilocybe cubensis)
chain 1: NYSNEFGLMQPIQEFKAFIESDPVVHQEFIDMFEGIQDSPRNYQELCNMFNDIFRKAPVYGDLGPPVYMIMAKLMNTRAGFSAFTRQRLNLHFKKLFDTWGLFLSSKDSRNVLVADQFDDRHCGWLNERALSAMVKHYNGRAFDEVFLCDKNAPYYGFNSYDDFFNRRFRNRDIDRPVVGGVNNTTLISAACESLSYNVSYDVQSLDTLVFKGETYSLKHLLNNDPFTPQFEHGSILQGFLNVTAYHRWHAPVNGTIVKIINVPGTYFAQAPSTIGDPIPDNDYDPPPYLKSLVYFSNIAARQIMFIEADNKEIGLIFLVFIGMTEISTCEATVSEGQHVNRGDDLGMFHFGG
chain 2: SSFALGLRKDCRAEIVEKFTEPGTVIRINEVVAALKA
modifications: pyruvoyl prosthetic group at 403 (Pvl403, formed from Ser403)
stoichiometry N [4]: 2
